First the molecules themselves.
B1: GNB5 (parent)
chain: DINSVRYYPSGDAFASGSDDATCR
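Also: lentivirally expressed fusions sorted by FACS into six bins by GFP to DsRed ratio, PSI derived from sequencing read proportions per bin multiplied by bin number.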

The variants in this series derive from B1. The series is described as follows: protein stability index of a GFP-peptide fusion (GPS, HEK-293T) (PSI 1-6); higher = more stable. To be noted: c terminus: a fixed tail appended.
For DINSVRYYPSGDAFASTSDDATCR [G17T], the protein stability index is 3.63.

With DINSVRYYPSGDAKASGSDDATCR [F14K], the protein stability index was 4.12.

With DINSVRYYPSGDAYASGSDDATCR [F14Y], the protein stability index worked out at 4.09.

DINSVRYYPSGDAEASGSDDATCR [F14E]: the protein stability index was 5.

For the variant DINSVRYYPSGDAGASGSDDATCR [F14G], the protein stability index worked out at 5.08.

With DINSVRYYPSGDAVASGSDDATCR [F14V], the protein stability index came to 4.28.

On to DINSVRYYPSGDAAASGSDDATCR [F14A], for which the protein stability index stood at 4.21.

For the variant DINSVRYYPSGDAPASGSDDATCR [F14P], the protein stability index was determined as 4.38.

Regarding DINSVRYYPSGDAWASGSDDATCR [F14W], the protein stability index is 3.94.

For DINSVRYYPSGDAIASGSDDATCR [F14I], the protein stability index was found to be 4.49.

As to DINSVRYYPSGDACASGSDDATCR [F14C], the protein stability index stood at 4.16.

With DINSVRYYPSGDAQASGSDDATCR [F14Q], the protein stability index was determined as 4.44.

Turning to DINSVRYYPSGDATASGSDDATCR [F14T], the protein stability index is 4.75.

Turning to DINSVRYYPSGDAHASGSDDATCR [F14H], the protein stability index is 3.99.

Consider DINSVRYYPSGDALASGSDDATCR [F14L], for which the protein stability index is 4.1.

DINSVRYYPSGDASASGSDDATCR [F14S]: the protein stability index was 4.64.

Turning to DINSVRYYPSGDANASGSDDATCR [F14N], the protein stability index is 3.8.

In the case of DINSVRYYPSGDAMASGSDDATCR [F14M], the protein stability index was found to be 3.85.

For the variant DINSVRYYPSGDARASGSDDATCR [F14R], the protein stability index came to 3.64.

Regarding DINSVRYYPSGDADASGSDDATCR [F14D], the protein stability index was found to be 4.16.

Take DINSVRYPPSGDAFASGSDDATCR [Y8P]: the protein stability index is 4.63.

On to DINSVRYIPSGDAFASGSDDATCR [Y8I], for which the protein stability index was 4.5.

Consider DINSVRYFPSGDAFASGSDDATCR [Y8F], for which the protein stability index stood at 3.82.

Consider DINSVRYRPSGDAFASGSDDATCR [Y8R], for which the protein stability index was found to be 4.65.

Regarding DINSVRYWPSGDAFASGSDDATCR [Y8W], the protein stability index worked out at 4.24.

Consider DINSVRYSPSGDAFASGSDDATCR [Y8S], for which the protein stability index was determined as 3.94.

As for DINSVRYKPSGDAFASGSDDATCR [Y8K], the protein stability index was found to be 3.79.

Consider DINSVRYTPSGDAFASGSDDATCR [Y8T], for which the protein stability index amounted to 4.45.

Turning to DINSVRYNPSGDAFASGSDDATCR [Y8N], the protein stability index is 4.34.

As to DINSVRYMPSGDAFASGSDDATCR [Y8M], the protein stability index worked out at 4.55.

Turning to DINSVRYGPSGDAFASGSDDATCR [Y8G], the protein stability index came out at 4.43.

As for DINSVRYLPSGDAFASGSDDATCR [Y8L], the protein stability index is 4.39.

For the variant DINSVRYQPSGDAFASGSDDATCR [Y8Q], the protein stability index is 4.77.

As for DINSVRYHPSGDAFASGSDDATCR [Y8H], the protein stability index came to 3.78.

Regarding DINSVRYVPSGDAFASGSDDATCR [Y8V], the protein stability index worked out at 4.55.

Regarding DINSVRYYPSGDAFHSGSDDATCR [A15H], the protein stability index was 3.7.

Take DINSVRYYPSGDAFISGSDDATCR [A15I]: the protein stability index was 3.43.

For the variant DINSVRYYPSGDAFLSGSDDATCR [A15L], the protein stability index turned out to be 3.73.

In the case of DINSVRYYPSGDAFTSGSDDATCR [A15T], the protein stability index came out at 3.63.

For the variant DINSVRYYPSGDAFDSGSDDATCR [A15D], the protein stability index came out at 4.16.

For DINSVRYYPSGDAFWSGSDDATCR [A15W], the protein stability index is 3.29.

On to DINSVRYYPSGDAFPSGSDDATCR [A15P], for which the protein stability index turned out to be 3.92.

As to DINSVRYYPSGDAFCSGSDDATCR [A15C], the protein stability index was 3.66.

Turning to DINSVRYYPSGDAFQSGSDDATCR [A15Q], the protein stability index is 3.86.

Regarding DINSVRYYPSGDAFSSGSDDATCR [A15S], the protein stability index was 3.66.

In the case of DINSVRYYPSGDAFKSGSDDATCR [A15K], the protein stability index was 3.58.

Consider DINSVRYYPSGDAFGSGSDDATCR [A15G], for which the protein stability index came to 3.51.

With DINSVRYYPSGDAFYSGSDDATCR [A15Y], the protein stability index worked out at 3.23.

Turning to DINSVRYYPSGDAFMSGSDDATCR [A15M], the protein stability index was determined as 3.57.

On to DINSVRYYPSGDAFESGSDDATCR [A15E], for which the protein stability index amounted to 4.09.

In the case of DINSVRYYPSGDAFNSGSDDATCR [A15N], the protein stability index was 4.12.

DINSVRYYPSGDAFRSGSDDATCR [A15R]: the protein stability index stood at 2.99.

Regarding DINSVRYYPSGDAFVSGSDDATCR [A15V], the protein stability index worked out at 3.91.

In the case of DINSVRYYPSGDAFFSGSDDATCR [A15F], the protein stability index was 2.83.

As for DINSVRYYPSGDAFASGADDATCR [S18A], the protein stability index was 3.35.

In the case of DINSVRYYPSGDAFASGCDDATCR [S18C], the protein stability index was found to be 3.88.

For the variant DINSVRYYPSGLAFASGSDDATCR [D12L], the protein stability index is 2.87.

As for DINSVRYYPSGRAFASGSDDATCR [D12R], the protein stability index came out at 3.33.

DINSVRYYPSGPAFASGSDDATCR [D12P]: the protein stability index was determined as 3.34.

In the case of DINSVRYYPSGSAFASGSDDATCR [D12S], the protein stability index turned out to be 3.46.

Consider DINSVRYYPSGCAFASGSDDATCR [D12C], for which the protein stability index came to 2.66.

With DINSVRYYPSGVAFASGSDDATCR [D12V], the protein stability index turned out to be 2.94.

As for DINSVRYYPSGNAFASGSDDATCR [D12N], the protein stability index was 3.06.

Regarding DINSVRYYPSGAAFASGSDDATCR [D12A], the protein stability index is 3.4.

Consider DINSVRYYPSGQAFASGSDDATCR [D12Q], for which the protein stability index was 3.46.

Regarding DINSVRYYPSGYAFASGSDDATCR [D12Y], the protein stability index was 3.19.

Take DINSVRYYPSGGAFASGSDDATCR [D12G]: the protein stability index worked out at 3.54.

Regarding DINSVRYYPSGIAFASGSDDATCR [D12I], the protein stability index was 3.08.

For the variant DINSVRYYPSGEAFASGSDDATCR [D12E], the protein stability index was found to be 3.61.

For the variant DINSVRYYPSGKAFASGSDDATCR [D12K], the protein stability index came out at 3.

In the case of DINSVRYYPSGFAFASGSDDATCR [D12F], the protein stability index worked out at 2.69.

For DINSVRYYPSGWAFASGSDDATCR [D12W], the protein stability index was 2.77.

For the variant DINSVRYYPSGHAFASGSDDATCR [D12H], the protein stability index worked out at 3.34.

As for DINSVRYYPSGMAFASGSDDATCR [D12M], the protein stability index is 2.7.

Take DINSVRYYPSGTAFASGSDDATCR [D12T]: the protein stability index was found to be 3.31.

As for DINSVRYYPSGDAFAQGSDDATCR [S16Q], the protein stability index turned out to be 3.78.

DINSVRYYPSGDAFAYGSDDATCR [S16Y]: the protein stability index was 3.55.

For the variant DINSVRYYPSGDAFAMGSDDATCR [S16M], the protein stability index was 3.29.

As for DINSVRYYPSGDAFAHGSDDATCR [S16H], the protein stability index is 3.84.

Turning to DINSVRYYPSGDAFATGSDDATCR [S16T], the protein stability index is 3.49.

Turning to DINSVRYYPSGDAFAAGSDDATCR [S16A], the protein stability index stood at 4.04.

In the case of DINSVRYYPSGDAFANGSDDATCR [S16N], the protein stability index was 4.15.

As to DINSVRYYPSGDAFAGGSDDATCR [S16G], the protein stability index is 4.28.

As for DINSVRYYPSGDAFAPGSDDATCR [S16P], the protein stability index was found to be 3.88.

As to DINSVRYYPSGDAFADGSDDATCR [S16D], the protein stability index is 4.27.

Regarding DINSVRYYPSGDAFAFGSDDATCR [S16F], the protein stability index was found to be 3.46.

Turning to DINSVRYYPSGDAFAEGSDDATCR [S16E], the protein stability index was 4.55.

For the variant DINSVRYYPSGDAFAIGSDDATCR [S16I], the protein stability index is 3.27.

As to DINSVRYYPSGDAFAKGSDDATCR [S16K], the protein stability index amounted to 3.34.

With DINSVRYYPSGDAFAWGSDDATCR [S16W], the protein stability index was found to be 3.15.

For DINSVRYYPSGDAFALGSDDATCR [S16L], the protein stability index is 3.58.

Take DINSVRYYPSGDAFACGSDDATCR [S16C]: the protein stability index amounted to 3.66.

As for DINSVRYYPSGDAFAVGSDDATCR [S16V], the protein stability index worked out at 3.84.

For the variant DINSVRYYPSGDAFARGSDDATCR [S16R], the protein stability index was determined as 3.77.

The record behind these values is the supplement of paper PMC10567573.
